Test results published in paper PMC5803617 (Journal of Cachexia, Sarcopenia and Muscle, 2017).

Columns and labels:
[1] = biological target: GST-MuRF1/telethonin complexes, cross-linked (rat) (UniProt Q91Z63); assay: SPR
[2] = biological target: MuRF1/telethonin complex co-expressed in yeast from pBridge::MuRF1/telethonin (rat) (UniProt Q91Z63); assay: yeast three-hybrid
GST-MuRF1 = GST-MuRF1 (rat, UniProt Q91Z63 1-351); assay: SPR
Chain of GST-MuRF1 (Q91Z63 whole entry): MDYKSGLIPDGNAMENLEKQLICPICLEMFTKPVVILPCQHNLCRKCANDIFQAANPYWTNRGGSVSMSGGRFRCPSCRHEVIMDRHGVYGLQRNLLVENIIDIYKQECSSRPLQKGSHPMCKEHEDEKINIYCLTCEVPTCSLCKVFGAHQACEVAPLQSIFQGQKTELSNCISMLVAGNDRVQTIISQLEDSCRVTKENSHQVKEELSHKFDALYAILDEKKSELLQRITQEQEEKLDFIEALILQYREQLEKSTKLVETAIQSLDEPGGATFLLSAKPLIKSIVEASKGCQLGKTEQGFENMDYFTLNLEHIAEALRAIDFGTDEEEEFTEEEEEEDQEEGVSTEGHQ

Chain of MuRF1/telethonin complex co-expressed in yeast from pBridge::MuRF1/telethonin (rat) (Q91Z63 whole entry, looked up, one chain of several): as the sequence (Q91Z63 whole entry) above
Chain of UBE2E1, untagged recombinant (P52482 whole entry): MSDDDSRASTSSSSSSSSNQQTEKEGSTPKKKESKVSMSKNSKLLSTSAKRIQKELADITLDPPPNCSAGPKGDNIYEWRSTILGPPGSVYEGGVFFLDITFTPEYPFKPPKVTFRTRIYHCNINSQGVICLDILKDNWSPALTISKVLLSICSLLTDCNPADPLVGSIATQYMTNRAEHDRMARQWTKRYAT
Chain of UBE2E1 fused to the activation domain of GAL4 (P52482 whole entry, the tested form may be a part): as the sequence (P52482 whole entry) above

Row | Kd [1] [nM] | percent positive clones [2] [%] | ka of the E2G1 dimer (heterogeneous analyte model) (GST-MuRF1) [M⁻¹ s⁻¹] | ka of the E2G1 monomer (heterogeneous analyte model) (GST-MuRF1) [M⁻¹ s⁻¹] | Molecule
1 | 5 | – | – | – | UBE2E1, untagged recombinant (from UniProt P52482 1-193) (enzyme)
2 | – | 93 | – | – | UBE2E1 fused to the activation domain of GAL4 (from UniProt P52482 1-193) (enzyme)
3 | – | 58 | ~300 | ~4000 | UBE2G1, untagged recombinant (enzyme, human, UniProt P62253 1-170, looked up) MTELQSALLLRRQLAELNKNPVEGFSAGLIDDNDLYRWEVLIIGPPDTLYEGGVFKAHLTFPKDYPLRPPKMKFITEIWHPNVDKNGDVCISILHEPGEDKYGYEKPEERWLPIHTVETIMISVISMLADPNGDSPANVDAAKEWREDRNGEFKRKVARCVRKSQETAFE
